Results from US20210253718A1, “FRIZZLED5 PROTEIN-BINDING AGENTS” (Modmab Therapeutics Corporation, priority 2016, published 2021).
Substitutions are numbered along the chain they refer to.

B1: Fab-2900: anti-FZD5 Fab with antibody variable region Fv-2900; CDR SEQ ID NOs: 35, 36, 39, 78, 115, 153 (antibody, V domains shown)
VH: EVQLVESGGGLVQPGGSLRLSCAASGFNLSSYYIHWVRQAPGKGLEWVASISSSSSSTSYADSVKGRFTISADTSKNTAYLQMNSLRAEDTAVYYCARGALDYWGQGTLVTVSS
VL: DIQMTQSPSSLSASVGDRVTITCRASQSVSSAVAWYQQKPGKAPKLLIYSASSLYSGVPSRFSGSRSGTDFTLTISSLQPEDFATYYCQQWYSGSSLFTFGQGTKVEIK
B2: Fab-2907: anti-FZD5 Fab with antibody variable region Fv-2907; CDR SEQ ID NOs: 35, 36, 46, 85, 122, 159 (antibody, V domains shown)
VH: EVQLVESGGGLVQPGGSLRLSCAASGFNIYSSYMHWVRQAPGKGLEWVASISSYSGSTYYADSVKGRFTISADTSKNTAYLQMNSLRAEDTAVYYCARSSWGAYIVSYGFDYWGQGTLVTVSS
VL: B1 VL with W91V, Y92G, S93Y, G94W, S95W, S96G, F98I
B3: Fab-2910: anti-FZD5 Fab with antibody variable region Fv-2910; CDR SEQ ID NOs: 35, 36, 49, 88, 125, 162 (antibody, V domains shown)
VH: B1 VH with L29I, S31Y, Y32S, I34M, S52Y, L101M
VL: DIQMTQSPSSLSASVGDRVTITCRASQSVSSAVAWYQQKPGKAPKLLIYSASSLYSGVPSRFSGSRSGTDFTLTISSLQPEDFATYYCQQWYGSHLITFGQGTKVEIK
B4: Fab-2905: anti-FZD5 Fab with antibody variable region Fv-2905; CDR SEQ ID NOs: 35, 36, 44, 83, 120, 157 (antibody, V domains shown)
VH: EVQLVESGGGLVQPGGSLRLSCAASGFNLSYYYMHWVRQAPGKGLEWVASIYSSYSYTSYADSVKGRFTISADTSKNTAYLQMNSLRAEDTAVYYCARSGYALDYWGQGTLVTVSS
VL: DIQMTQSPSSLSASVGDRVTITCRASQSVSSAVAWYQQKPGKAPKLLIYSASSLYSGVPSRFSGSRSGTDFTLTISSLQPEDFATYYCQQSSWYYGYPFTFGQGTKVEIK
B5: Fab-2936: anti-FZD5 Fab with antibody variable region Fv-2936; CDR SEQ ID NOs: 35, 36, 75, 112, 151, 179 (antibody, V domains shown)
VH: B1 VH with L29I, S31Y, I34M, S52Y, S56G, G99A, L101M
VL: B3 VL with G93A, S94A, H95S
B6: Fab-2926: anti-FZD5 Fab with antibody variable region Fv-2926; CDR SEQ ID NOs: 35, 36, 65, 103, 141, 173 (antibody, V domains shown)
VH: B1 VH with L29I, S30Y, Y32S, I34M, S52Y, S53P, A100G
VL: B1 VL with S93H, S95G

Biological target: T1, FZD1 CRD (Homo sapiens, UniProt Q9UP38)
T1 construct: D112-P238; GPI anchor signal (C); expressed in transfected cells; host or cells: CHO cells, lentiviral pLenti-puro
Test: Flow cytometry of anti-FZD5 Fab binding to CHO cells overexpressing Frizzled CRD
Procedure: Plasmids: pLCKO lentiviral vector used for knockout (TKO) library construction and expression of individual gRNAs was constructed as described previously (Hart et al., 2015). Briefly, single guide RNA (sgRNA) scaffold was amplified from px330 (Addgene 42230) and cloned into pLKO.TRC005 lentiviral vector (Broad Institute, Cambridge, Mass.) using AgeI/EcoRI restriction sites. BfuAI sites were added at the 5′ end of the sgRNA scaffold for cloning the TKO library or individual gRNA target sequences. Lenti Cas9-2A-BsdR vector used to generate Cas9 stable expression cell lines was constructed as described previously (Hart et al., 2015). Briefly, lentiCRISPR pXPR_001 (Addgene 49535) was modified through removal of the sgRNA scaffold region through NdeI/EcoRI digest and blunt ends generation using Large Klenow Fragment (NEB). 2A-puro was replaced with 2A-BsdR by PCR using the NheI/MluI sites. Each of the 10 human Frizzled cysteine rich domains (CRDs) were cloned into the lentiviral expression plasmid pLenti-puro in the following cassette: FZD_CRD-MYC-GPI.
Flow cytometry: Primary staining of cells was performed by treatment with 200 nM Frizzled profiler Fab. Alexa Fluor 488 AffiniPure F(ab′)2 was used as the secondary antibody (Jackson ImmunoResearch #109-546-097). c-Myc (9E10) IgG1 (primary antibody, Santa Cruz, lot #D0306) and Alexa Fluor 488 IgG (secondary antibody, Life technologies, lot #1458649) were used as controls. Dead cells were excluded by staining with Fixable Viability Dye eFluor 660 (eBioscience, catalogue number 65-0864). All reagents were used as per manufacturer's instructions. Flow cytometry was performed on a BD FACSCanto II flow cytometer (BD Biosciences), and data were analyzed with FlowJo software (FlowJo, LLC).
To confirm that the FZD5-WNT7B circuit is not driven simply by expression and rule out the possibility of a disconnect between RNA and protein levels for the Wnt receptors in HPAF-II cells, a panel of recombinant Fabs were generated, alternatively referred to herein as ‘Frizzled profiler’, that can detect and discriminate all but one of the ten Frizzled receptors. […] To characterize the binding specificity of these Fabs on cells, a panel of 10 CHO cell lines was generated, each expressing the CRD domain of a different myc-tagged Frizzled family member anchored at the plasma membrane through a GPI anchor (CHO-myc-FZDGPI). Despite the high sequence identity between Frizzled family members (FIG. 7A, FIG. 7B), selective Fabs were identified for FZD4, FZD5, FZD6 and FZD10 as assessed by immunofluorescence and flow cytometry (FIG. 7D and FIG. 8). […] The FZD8 CRD is most homologous to that of FZD5 (FIG. 7B). These Fabs can be used to discriminate expression of FZD1, FZD2, FZD4, FZD5, FZD6, FZD7, FZD8, FZD9 and FZD10 (FIG. 7D and FIG. 8). The ‘Frizzled profiler’ therefore consists of 10 different Fabs that can be used to discriminate expression of 9 different Frizzled family members. The Frizzled profiler was then used to confirm that HPAF-II cells express FZD1, FZD5, FZD6 and possibly FZD8 (FIG. 7E).
The binding of anti-FZD5 Fabs to cell surface-expressed Frizzled protein was further determined for each member of the Frizzled family via flow cytometry and immunofluorescence analysis of a panel of 10 CHO cell lines, each ectopically over-expressing the extracellular cysteine-rich domain (CRD) of a different Frizzled protein family member.

| Molecule | Median fluorescence, Frizzled CRD overexpressed on CHO cells: FZD1 |
| --- | --- |
| B1 | 31.06 |
| B2 | 3.28 |
| B3 | 6.67 |
| B4 | 3.75 |

Biological target: T1, FZD1 CRD
Test: Immunofluorescence of anti-FZD5 Fab binding to CHO cells overexpressing Frizzled CRD
Parameters: key: −: no binding; +: very weak binder; ++: weak binder; +++: good binder; ++++: very good binder
How it was run: (§1)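 CHO panel, 10 lines, each w/ one human FZD CRD-myc-GPI (lentiviral). Anti-FZD5 Fabs applied; surface binding scored by IF, cross-checked by FACS.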

| Molecule | Immunofluorescence binding, Frizzled CRD overexpressed on CHO cells: FZD1 |
| --- | --- |
| B1 | − |
| B5 | − |
| B6 | − |
| B2 | − |
| B3 | − |

Biological target: T2, FZD10 CRD (Homo sapiens, UniProt Q9ULW2)
T2 construct: 30-156; GPI anchor signal (C); expressed in transfected cells; host or cells: CHO cells, lentiviral pLenti-puro
T2 sequence (Q9ULW2 30-156): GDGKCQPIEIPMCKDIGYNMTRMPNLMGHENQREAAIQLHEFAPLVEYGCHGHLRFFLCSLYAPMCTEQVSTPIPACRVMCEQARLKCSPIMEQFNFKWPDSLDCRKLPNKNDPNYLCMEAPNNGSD
Test: as above
Parameters: key: −: no binding; +: very weak binder; ++: weak binder; +++: good binder; ++++: very good binder
How it was run: as §1

| Molecule | Immunofluorescence binding, Frizzled CRD overexpressed on CHO cells: FZD10 |
| --- | --- |
| B1 | − |
| B5 | − |
| B6 | − |
| B2 | − |
| B3 | − |
| B4 | − |

Biological target: T3, FZD3 CRD (Homo sapiens, UniProt Q9NPG1)
T3 construct: CRD of FZD1, FZD2, FZD3, FZD4, FZD5, FZD6, FZD7, FZD8, FZD9 or FZD10; GPI anchor signal (C); expressed in transfected cells; host or cells: CHO cells, lentiviral pLenti-puro
T3 sequence (Q9NPG1 23-136 limits assumed): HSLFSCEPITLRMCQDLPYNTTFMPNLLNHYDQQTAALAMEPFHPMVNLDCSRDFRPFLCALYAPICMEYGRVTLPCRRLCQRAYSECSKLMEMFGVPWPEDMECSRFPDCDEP
Test: as above
Parameters: key: −: no binding; +: very weak binder; ++: weak binder; +++: good binder; ++++: very good binder
How it was run: as §1

| Molecule | Immunofluorescence binding, Frizzled CRD overexpressed on CHO cells: FZD3 |
| --- | --- |
| B1 | − |
| B5 | − |
| B6 | − |
| B2 | − |
| B3 | − |
| B4 | − |

Biological target: T4, FZD4 CRD (Homo sapiens, UniProt Q9ULV1)
T4 construct: E42-V167; GPI anchor signal (C); expressed in transfected cells; host or cells: CHO cells, lentiviral pLenti-puro
T4 sequence (Q9ULV1 42-167): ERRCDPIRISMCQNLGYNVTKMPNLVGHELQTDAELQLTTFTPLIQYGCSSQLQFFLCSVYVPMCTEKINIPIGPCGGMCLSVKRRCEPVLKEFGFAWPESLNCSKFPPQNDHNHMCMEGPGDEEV
Test: as above
Parameters: key: −: no binding; +: very weak binder; ++: weak binder; +++: good binder; ++++: very good binder
How it was run: as §1

| Molecule | Immunofluorescence binding, Frizzled CRD overexpressed on CHO cells: FZD4 |
| --- | --- |
| B1 | − |
| B5 | − |
| B6 | − |
| B2 | − |
| B3 | − |
| B4 | − |

Biological target: T5, FZD9 CRD (Homo sapiens, UniProt O00144)
T5 construct: G35-A161; GPI anchor signal (C); expressed in transfected cells; host or cells: CHO cells, lentiviral pLenti-puro
T5 sequence (O00144 35-161): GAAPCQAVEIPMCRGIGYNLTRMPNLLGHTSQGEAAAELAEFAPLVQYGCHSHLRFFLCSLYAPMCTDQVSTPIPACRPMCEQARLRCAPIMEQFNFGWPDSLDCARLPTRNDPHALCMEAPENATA
Test: as above
Parameters: key: −: no binding; +: very weak binder; ++: weak binder; +++: good binder; ++++: very good binder
How it was run: as §1

| Molecule | Immunofluorescence binding, Frizzled CRD overexpressed on CHO cells: FZD9 |
| --- | --- |
| B1 | − |
| B5 | − |
| B6 | − |
| B2 | − |
| B3 | − |
| B4 | − |
